Data published in patent US5747321.

Target: fused protein β-gal97S4DhCNP-22R5-3 (human) (UniProt P23582)

**Q.** How did the cleavage efficiency (proportion of fused protein cleaved) turn out when “natural V8 protease (Staphylococcus aureus V8 protease) (from UniProt P0C1U8) (enzyme)” was run?
**A.** Its cleavage efficiency (proportion of fused protein cleaved) is 60%.
